These results are taken from PMC7094161, “An Alternative Pin1 Binding and Isomerization Site in the N-Terminus Domain of PSD-95” (Frontiers in Molecular Neuroscience, 2020).

What all share (experiment): FRET or BRET; FRET/FLIM: EGFP fluorescence lifetime of EKAR constructs (WW domain and peptide on one chain) in fixed, mounted COS cells; serum in the medium
What all share (conditions): partners not purified

For assay [1], the target named is T1, PSD-95 S25 peptide of the EKAR construct (UniProt P31016 20-30).
T1 construct: PSD-95 peptide around S25 put in place of the CDC25C peptide; On one chain with m14 (see its note); also called EKAR S25; source: COS cells, transfected, in cells
T1 peptide (looked up): PPLEHSPAHLP

The target of assay [2] is T2, PSD-95 T19 peptide of the EKAR construct (UniProt P31016 14-24).
T2 construct: PSD-95 peptide around T19 put in place of the CDC25C peptide; 11 residues, the text says 10-mer; On one chain with m14 (see its note); also called EKAR T19; EKAR_(cyto)T19; source: COS cells, transfected, in cells
T2 peptide (looked up): YQDEDTPPLEH

Assay [3] deals with T3, PSD-95 S35 peptide of the EKAR construct (UniProt P31016 30-40).
T3 construct: PSD-95 peptide around S35 put in place of the CDC25C peptide; On one chain with m14 (see its note); also called EKAR S35; source: COS cells, transfected, in cells
T3 peptide (looked up): PNQANSPPVIV

B1: Pin1 WW domain of the EKAR construct (domain or fragment, UniProt Q13526 5-39, looked up)
chain: EKLPPGWEKRMSRSSGRVYYFNHITNASQWERPSG
notes: Pin1 WW domain as in the EKAR construct (Harvey et al., 2008); source: COS cells, transfected, in cells
With B1, the EGFP fluorescence lifetime in assay [1] was 1.69 ns; in assay [2], 1.72 ns; in assay [3], 1.81 ns.
